Assay results from patent US20240251767A1 (LEVERAGEN, published 2024).
Like-named read-outs stand apart in the source and are kept apart here.

How the values were obtained:
[1] = target: T1, Spike protein of the COVID-19 Spike-ACE2 Binding Assay Kit (Raybiotech) (SARS-CoV2, UniProt P0DTC2 319-541)
[2] = target: T1, Spike protein of the COVID-19 …; remark: listed apart in the source

Binder	IC50 [1]	IC50 [2]
MS329_5 Nb-human Fc fusion (Fc fusion, not shown: a dimerising Fc or GST, also called LVGN-S3205; LVGN-53205) VH: EVQLQQSGPELVKPGASVKMSCKASGYTFTDYYIKWEKQSHGKSLEWIGDINPKNGETFYNQQFKGKATLTVDKSSSTAYMQLNSLTSEDSAVYYCARKEYGDYGYAVDYWGQGTSVTVSS	0.4 nM	0.397 nM
M2S521_378 Nb-human Fc fusion (Fc fusion, not shown: a dimerising Fc or GST, also called LVGN-S231378; LVGN-S521378) VH: EVQLQQSGPELVKPGASVKISCKASGYTFTDYYMKWVKQSHGKSLEWIGDINPKNGGTNYNQKFKDKATLTVDKSSSTAYMELRSLTSEDSAVYYCARLEDGYYGYAIDYWSQGTSVTVSS	3.3 nM	–
